According to IntAct's records for PubMed 19219046:

Biological target: DDX19B, Q9UMR2-1
Sequence (Q9UMR2 whole entry): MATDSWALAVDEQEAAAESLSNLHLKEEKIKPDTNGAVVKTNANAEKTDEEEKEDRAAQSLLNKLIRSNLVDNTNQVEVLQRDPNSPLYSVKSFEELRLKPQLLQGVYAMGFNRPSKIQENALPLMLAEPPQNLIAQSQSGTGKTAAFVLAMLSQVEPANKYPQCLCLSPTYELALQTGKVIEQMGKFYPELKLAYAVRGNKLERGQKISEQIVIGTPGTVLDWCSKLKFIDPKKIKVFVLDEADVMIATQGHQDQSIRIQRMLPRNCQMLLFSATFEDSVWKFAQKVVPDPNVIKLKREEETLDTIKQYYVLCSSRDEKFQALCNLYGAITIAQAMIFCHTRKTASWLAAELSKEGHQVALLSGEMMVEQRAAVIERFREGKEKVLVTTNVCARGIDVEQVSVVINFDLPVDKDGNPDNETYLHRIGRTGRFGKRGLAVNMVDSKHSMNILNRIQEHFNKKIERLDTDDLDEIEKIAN

Chain of Nuclear pore complex protein Nup214 (Homo sapiens), P35658-1 V353A (P35658 whole entry V353A, one chain of several): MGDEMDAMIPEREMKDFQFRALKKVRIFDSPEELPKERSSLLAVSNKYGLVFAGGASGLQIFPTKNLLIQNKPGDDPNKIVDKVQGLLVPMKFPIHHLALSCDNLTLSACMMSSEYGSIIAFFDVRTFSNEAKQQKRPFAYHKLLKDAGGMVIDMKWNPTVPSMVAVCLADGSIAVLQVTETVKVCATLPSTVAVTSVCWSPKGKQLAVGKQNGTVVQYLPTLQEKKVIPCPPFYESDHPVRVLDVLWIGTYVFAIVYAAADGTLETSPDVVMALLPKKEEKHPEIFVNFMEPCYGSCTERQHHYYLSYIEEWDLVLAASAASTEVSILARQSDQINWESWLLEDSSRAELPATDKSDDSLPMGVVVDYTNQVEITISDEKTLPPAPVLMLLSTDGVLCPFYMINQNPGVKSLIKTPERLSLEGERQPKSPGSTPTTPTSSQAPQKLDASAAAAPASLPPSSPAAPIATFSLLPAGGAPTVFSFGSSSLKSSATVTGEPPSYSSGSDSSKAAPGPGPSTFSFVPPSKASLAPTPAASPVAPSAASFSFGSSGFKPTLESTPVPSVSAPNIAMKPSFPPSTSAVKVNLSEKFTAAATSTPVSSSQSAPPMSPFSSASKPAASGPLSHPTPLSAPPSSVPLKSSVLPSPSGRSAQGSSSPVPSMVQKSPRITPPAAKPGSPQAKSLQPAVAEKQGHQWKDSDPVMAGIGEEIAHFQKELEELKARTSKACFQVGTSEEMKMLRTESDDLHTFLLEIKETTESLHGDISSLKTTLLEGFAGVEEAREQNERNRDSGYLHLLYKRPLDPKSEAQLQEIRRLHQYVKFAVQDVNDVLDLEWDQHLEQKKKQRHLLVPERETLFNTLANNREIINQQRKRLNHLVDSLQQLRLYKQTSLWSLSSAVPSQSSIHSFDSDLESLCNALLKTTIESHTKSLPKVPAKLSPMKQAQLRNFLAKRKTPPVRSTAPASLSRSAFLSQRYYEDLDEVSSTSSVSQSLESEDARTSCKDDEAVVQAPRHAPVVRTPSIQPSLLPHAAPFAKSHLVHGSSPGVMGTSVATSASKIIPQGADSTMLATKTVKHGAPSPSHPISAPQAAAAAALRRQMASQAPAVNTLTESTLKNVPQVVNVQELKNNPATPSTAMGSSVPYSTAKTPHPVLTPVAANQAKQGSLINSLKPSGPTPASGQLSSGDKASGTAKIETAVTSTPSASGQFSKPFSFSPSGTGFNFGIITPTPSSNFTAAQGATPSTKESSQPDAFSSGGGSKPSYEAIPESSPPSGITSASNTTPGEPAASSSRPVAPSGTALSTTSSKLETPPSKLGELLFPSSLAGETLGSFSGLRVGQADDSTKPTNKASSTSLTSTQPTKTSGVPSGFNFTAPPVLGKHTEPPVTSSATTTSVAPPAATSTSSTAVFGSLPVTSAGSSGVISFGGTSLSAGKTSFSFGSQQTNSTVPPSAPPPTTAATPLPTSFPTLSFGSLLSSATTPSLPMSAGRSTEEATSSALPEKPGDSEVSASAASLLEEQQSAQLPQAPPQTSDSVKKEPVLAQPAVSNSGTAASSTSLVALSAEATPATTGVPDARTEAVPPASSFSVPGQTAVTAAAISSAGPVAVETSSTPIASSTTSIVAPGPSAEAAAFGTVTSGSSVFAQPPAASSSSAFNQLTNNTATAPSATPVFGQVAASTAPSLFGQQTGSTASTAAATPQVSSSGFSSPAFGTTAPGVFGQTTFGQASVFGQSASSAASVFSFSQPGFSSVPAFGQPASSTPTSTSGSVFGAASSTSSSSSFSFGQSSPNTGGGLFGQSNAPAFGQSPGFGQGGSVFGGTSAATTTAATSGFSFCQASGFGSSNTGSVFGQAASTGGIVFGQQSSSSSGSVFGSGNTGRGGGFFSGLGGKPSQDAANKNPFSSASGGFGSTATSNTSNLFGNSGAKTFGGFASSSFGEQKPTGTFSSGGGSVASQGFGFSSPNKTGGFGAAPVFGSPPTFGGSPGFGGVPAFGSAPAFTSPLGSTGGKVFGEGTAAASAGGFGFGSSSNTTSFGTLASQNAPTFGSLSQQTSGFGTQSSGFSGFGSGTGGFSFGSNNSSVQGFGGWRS
Chain of Nuclear pore complex protein Nup214 (Homo sapiens), P35658-1 D359R (P35658 whole entry D359R, one chain of several): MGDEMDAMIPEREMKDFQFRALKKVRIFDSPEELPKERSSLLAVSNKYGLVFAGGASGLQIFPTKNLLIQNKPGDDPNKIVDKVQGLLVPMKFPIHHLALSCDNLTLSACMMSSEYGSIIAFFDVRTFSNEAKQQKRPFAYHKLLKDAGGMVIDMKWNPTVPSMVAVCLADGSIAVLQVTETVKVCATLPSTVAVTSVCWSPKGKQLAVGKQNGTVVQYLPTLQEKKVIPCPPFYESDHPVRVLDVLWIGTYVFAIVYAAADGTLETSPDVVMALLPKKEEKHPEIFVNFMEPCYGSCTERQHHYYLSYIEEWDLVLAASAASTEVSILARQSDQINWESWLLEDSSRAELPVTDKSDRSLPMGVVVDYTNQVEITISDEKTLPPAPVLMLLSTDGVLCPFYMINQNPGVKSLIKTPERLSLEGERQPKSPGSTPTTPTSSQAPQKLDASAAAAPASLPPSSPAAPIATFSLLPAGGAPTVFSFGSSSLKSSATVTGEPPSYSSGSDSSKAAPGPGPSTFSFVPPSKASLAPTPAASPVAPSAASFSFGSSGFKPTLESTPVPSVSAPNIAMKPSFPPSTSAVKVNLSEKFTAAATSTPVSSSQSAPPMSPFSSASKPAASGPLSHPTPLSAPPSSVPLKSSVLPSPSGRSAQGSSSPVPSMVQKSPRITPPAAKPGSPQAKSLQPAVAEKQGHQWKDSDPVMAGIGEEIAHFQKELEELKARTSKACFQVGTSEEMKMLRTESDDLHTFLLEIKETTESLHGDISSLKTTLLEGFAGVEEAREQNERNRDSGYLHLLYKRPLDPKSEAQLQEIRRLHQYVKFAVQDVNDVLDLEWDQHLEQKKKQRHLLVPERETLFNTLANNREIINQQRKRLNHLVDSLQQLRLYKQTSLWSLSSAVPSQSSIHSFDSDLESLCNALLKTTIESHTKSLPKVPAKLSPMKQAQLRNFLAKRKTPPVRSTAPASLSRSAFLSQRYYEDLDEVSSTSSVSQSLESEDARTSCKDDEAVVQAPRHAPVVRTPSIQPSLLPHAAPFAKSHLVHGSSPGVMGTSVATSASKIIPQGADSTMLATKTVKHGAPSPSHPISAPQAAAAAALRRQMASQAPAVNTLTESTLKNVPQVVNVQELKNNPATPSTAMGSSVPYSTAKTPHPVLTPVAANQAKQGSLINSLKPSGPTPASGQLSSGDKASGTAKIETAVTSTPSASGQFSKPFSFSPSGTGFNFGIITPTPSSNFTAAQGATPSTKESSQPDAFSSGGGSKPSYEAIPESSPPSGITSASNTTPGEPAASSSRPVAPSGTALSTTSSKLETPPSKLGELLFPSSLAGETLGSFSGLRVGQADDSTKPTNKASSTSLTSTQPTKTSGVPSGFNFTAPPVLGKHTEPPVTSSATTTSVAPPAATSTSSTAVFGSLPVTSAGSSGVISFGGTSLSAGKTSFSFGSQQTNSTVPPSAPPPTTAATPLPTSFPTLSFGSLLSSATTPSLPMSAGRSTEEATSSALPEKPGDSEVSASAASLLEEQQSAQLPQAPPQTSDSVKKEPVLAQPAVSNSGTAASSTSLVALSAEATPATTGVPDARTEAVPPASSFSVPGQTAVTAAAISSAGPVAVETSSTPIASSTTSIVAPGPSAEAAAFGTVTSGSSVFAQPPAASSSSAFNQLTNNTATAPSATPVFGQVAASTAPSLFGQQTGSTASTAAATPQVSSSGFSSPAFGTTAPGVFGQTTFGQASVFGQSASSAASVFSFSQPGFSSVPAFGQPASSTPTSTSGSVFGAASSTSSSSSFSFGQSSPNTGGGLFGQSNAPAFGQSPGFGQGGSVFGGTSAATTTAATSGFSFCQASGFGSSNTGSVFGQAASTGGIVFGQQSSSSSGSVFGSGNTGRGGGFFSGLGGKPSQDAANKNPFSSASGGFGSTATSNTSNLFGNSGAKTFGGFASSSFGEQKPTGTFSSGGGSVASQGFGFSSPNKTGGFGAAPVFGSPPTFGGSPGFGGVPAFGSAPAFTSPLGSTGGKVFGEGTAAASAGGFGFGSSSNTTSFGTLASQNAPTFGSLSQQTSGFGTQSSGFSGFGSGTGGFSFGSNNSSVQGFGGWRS

| Substance | effect of a mutation on the interaction |
| --- | --- |
| Nuclear pore complex protein Nup214 (Homo sapiens), P35658-1 D359R | disrupting interaction |
| Nuclear pore complex protein Nup214 (Homo sapiens), P35658-1 V353A | decreasing interaction |
